Test results from patent US20240124565A1 (DIADEM S R L, published 2024).
Where no end group is shown, it is not given here.

Biological target: T1, peptide CRTEEENLRKKGEPHH (SEQ ID NO: 2) conjugated with BSA (human, also: conjugated with BSA by the glutaraldehyde method)
T1 construct: 16-residue immunogen derived from human p53 282-297, with Cys in place of the first Arg; ELISA plates were coated with 'the antigen'; also called the antigen; peptide used as antigen
T1 peptide: CRTEEENLRKKGEPHH
Assay: ELISA, plate coated with the antigen, hybridoma supernatant dilutions
Experimental: The animals' splenocytes were fused with mouse myeloma cells (SP2/O cell line). The fusion products were subjected to screening against the antigen to select the antibody-producing clones. The growth of these clones was continued. This first screening was performed by ELISA methodology. The positive clones were labeled as “parental clones” and frozen after 3 passages. An antigen coating was created onto ELISA plates, and successively the fusion product supernatant was added. The serum of the immunized animals was used as a positive control in ELISA (Example 2).
After the fusion between the splenocytes of the mouse with the best antibody titer and mouse myeloma cells, an ELISA assay was performed to evaluate the fusion products. A coating with the antigen was created in a 96-well ELISA plate and serial dilutions of the supernatant from various clones were added to each well to evaluate their antibody production by spectrophotometric reading. The clones with the highest optical density at 450 nm (OD₄₅₀ₙₘ) were transferred to 24-well plates and after their growth the ELISA assay was repeated, the clones with the highest antibody production were transferred to 6-well plates, grown and tested again by ELISA. The procedure was repeated also for the clones transferred to culture flasks.

binding result: binds
B1: 2D3A8 antibody (antibody)
heavy: EVQLQQSGPELVKPGASVKMSCKASGYTFTSYVMHWVKQKPGQGLEWIGYINPYNDGTKYNEKFKGKATLTSDKSSSTAYMELSSLTSEDSAVYYCARGGYYAMDYWGQGTSVTVSSESQSFPNVFPLVSCESPLSDKNLVAMGCLARDFLPSTISFTWNYQNNTEVIQGIRTFPTLRTGGKYLATSQVLLSPKSILEGSDEYLVCKIHYGGKNRDLHVPIPAVAEMNPNVNVFVPPRDGFSGPAPRKSKLICEATNFTPKPITVSWLKDGKLVESGFTTDPVTIENKGSTPQTYKVISTLTISEIDWLNLNVYTCRVDHRGLTFLKNVSSTCAASPSTDILTFTIPPSFADIFLSKSANLTCLVSNLATYETLNISWASQSGEPLETKIKIMESHPNGTFSAKGVASVCVEDWNNRKEFVCTVTHRDLPSPQKKFISKPNEVHKHPPAVYLLPPAREQLNLRESATVTCLVKGFSPADISVQWLQRGQLLPQEKYVTSAPMPEPGAPGFYFTHSILTVTEEEWNSGETYTCVVGHEALPHLVTERTVDKSTGKPTLYNVSLIMSDTGGTCY
light: DIQMTQTTSSLSASLGDRVTISCRASQDISNYLNWYQQKPDGTVKLLIYYTSRLHSGVPSRFSGSGSGTDYSLTISNLEQEDIATYFCQQGNTLPYTFGGGTKLEIKRADAAPTVSIFPPSSEQLTSGGASVVCFLNNFYPKDINVKWKIDGSERQNGVLNSWTDQDSKDSTYSMSSTLTLTKDEYERHNSYTCEATHKTSTSPIVKSFNRNEC
notes: Mouse monoclonal from a hybridoma, purified from the clone's supernatant; also called clone 2D3A8
